Results on 15 molecules are retold here after US20230348572A1 (ROSALIND FRANKLIN INSTITUTE, published 2023).

In assay [1] the target is T1, SARS-CoV-2 Spike receptor binding domain (RBD, amino acids 330-532) (SARS-CoV-2, UniProt P0DTC2 330-532).
T1 construct: range 330-532
Briefly: phage ELISA on biotinylated RBD captured on neutravidin, anti-M13-HRP. A general note: An ELISA detects its analyte on a solid surface through an enzyme-linked reagent.

Assay [2] addresses T2, RBD-Fc (SARS-CoV-2; human, UniProt P0DTC2 330-532).
For assay [3], the target named is T2, RBD-Fc. The source holds these as a separate data set.
Assay [4] has as its target T1, SARS-CoV-2 Spike receptor binding …. Briefly: ITC, nanobody titrated into RBD, 25 °C, 1:1 stoichiometry. A general note: Isothermal titration calorimetry measures the heat released or taken up as one component is titrated into another.
Assay [5] has the same target.
For assay [6] the target is unchanged. Briefly: ITC, RBD in the cell, H11-H4 in the syringe.
The target of assay [7] is T2, RBD-Fc. Briefly: SPR single-cycle kinetics, RBD-Fc on Protein A chip, nanobody as analyte.
In assay [8] the target is T2, RBD-Fc. This is another data set of the same source.
The target of assay [9] is T1, SARS-CoV-2 Spike receptor binding …. This is another data set of the same source.
The target of assay [10] is T2, RBD-Fc. The assay is described as follows: SPR, single-cycle kinetics, RBD-Fc immobilized, H11-D4 as analyte, run ii). In general terms: In SPR one partner is held on a chip, and binding of the other changes the refractive index at the surface.
Assay [11] deals with T2, RBD-Fc. The assay is described as follows: SPR, single-cycle kinetics, RBD-Fc immobilized, H11-D4 as analyte, run i).

Where a chain is given by its changes, count along the chain named. Read-outs that look alike come from different tables or passages of the source.

B1: NbRBD_C10 (VHH)
VHH: QVQLVESGGGLVQPGGSLRLSCAASGFAFSSYDMSWVRQAPGKGLEWVSAIDSGGGVTYYADSMKGRFTISRDNAKNTVYLQMNSLKPEDTAVYYCNAVDGLGYLEYDYWGQGTQVTVSS
Consider B1, for which the “ELISA A405” value in [1] was over 1.5.

B2: NbRBD_G11 (VHH)
VHH: QVHLVESGGGLVQPGGSLRLSCAASGFTFDDYGMTWVRQAPGKGLEWVSAVNSGGGTSYADSVKGRFTISRDNAKNTLYLQMNSLKPEDTAVYYCAKRDGSWWGYTTDYWGKGTQVTVSS
B2: in [1], the “ELISA A405” value is over 1.5.

B3: NbRBD_A7 (VHH)
VHH: QVQLVESGGGLVQPGGSLRLSCAASGFTFDDYAMSWVRQAPGKGLEWVSAISWNGGGTYYAESMKGRFTISRDNAKNTLYLQMNSLKSEDTAVYYCAKDFHRYGSSTLEYDYWGQGTQVTVSS
In the case of B3, the “ELISA A405” value in assay [1] was over 1.5.

B4: NbRDB_E11 (VHH)
VHH: QVQLVESGGGLVQPGGSLRLSCAASGFTFSNYAMTWVRQAPGKGLEWISDIGSDGRHPAYADSVKGRYTISRDNAKNTLYLQMNSLKPEDTAMYYCLPGWSTVGTFLDAWGQGTQVTVSS
As for B4, in [1], the “ELISA A405” value is over 1.5.

B5: NbRBD_F5 (VHH)
VHH: QVQLVESGGGLVQAGGSLRLSCAASGTIFRINAMAWYRQAPGKQRELVAIISNGDSGDSTNYADSVKGRFTISRDSAKNTVYLQMNSLKPEDTAVYYCNVEASWPHKYWGQGTQVTVSS
As to B5, the “ELISA A405” value in assay [1] is over 1.5.

B6: NbRBD_B11 (VHH)
VHH: QVQLVESGGGLVQPGGSLRLSCAASGFTFDDYAMSWVRQAPGKGLEWVSNIYSYISTTHYADSVKGRFTISTDNAKNTLYLQMNSLKPEDTAVYYCAARRLDTTDYKYWGQGTQVTVSS
With B6, the “ELISA A405” value in assay [1] was over 1.5.

B7: NbRBD_G7 (VHH)
VHH: QVQLVESGGGLVQPGGSLRLSCATSGFTFDTYDMSWVRQAPGNGPEWVSAEDSTGNKFYADSVKGRFAISRDNARNTLYLQMNSLTSEDTAVYYCAKGLRSWGAWGQGTQVTVSS
B7: the “ELISA A405” value in [1] was over 1.5.

B8: NbRBD_G9 (VHH)
VHH: QVQLVESGGGLVQPGGSLRLSCAASGFTFYDYHMSWVRQAPGKGLEWVSGIDTGGGRTYAADSVKGRFTISRDNAKNTLYLQMNSLKSEDTALYYCVRDGDARGPDYDYWGQGTMVTVSS
Regarding B8, the “ELISA A405” value in assay [1] was over 1.5.

B9: NbRBD_H11 (VHH)
VHH: QVQLVESGGGLMQAGGSLRLSCAVSGRTFSTAAMGWFRQAPGKEREFVAAIRWSGGSAYYADSVKGRFTISRDKAKNTVYLQMNSLKYEDTAVYYCAQTRVTRSLLSDYATWPYDYWGQGTQVTVSS
notes: also called nanobody H11; Nb H11
By Kd is commonly meant the concentration at which binding is half-saturated. Low readings indicate higher affinity, high ones lower affinity. In the case of B9, the Kd is under 1000 nM in assay [2] and 378 nM in assay [3]. Further, the “ELISA A405” value in [1] was over 1.5.

B10: NbRBD_H11-H4 (VHH)
VHH: B9 VHH with R100H, V101Y, T102V, R103S, S104Y
notes: also called nanobody H11-H4
In the case of B10, the Kd in [4] was 12 nM; in assay [5], 11.8 nM; in assay [7], about 5 nM; in assay [8] it was 5.5 nM. The values for the ΔH in assay [5] and in [6] were -69 kJmol-1 and -67 kJmol-1, respectively. Besides, the ΔS is -79 Jmol-1K-1 in assay [5] and -80 Jmol-1K-1 in assay [6].

B11: NbRBD_H11-D4 (VHH)
VHH: B9 VHH with Q98R, R100E, V101N, T102V
notes: also called nanobody H11-D4
With B11, the Kd is 39 nM in [4]; 39.2 nM in assay [9]; 10 nM in assay [10]; about 10 nM in assay [7]; 9 nM in assay [11]. Moreover, in [9], the ΔH is -76.1 kJmol-1. Also, the ΔS in assay [9] was -114 Jmol-1K-1.

B12: NbRBD_D1 (VHH)
VHH: QVQLVESGGGLVQPGGSLRLSCAASGFTFSSYGMSWVRQAPGKGLEWVSGINSGGGSTSYADSVKGRFTISRDNAKNTLYLQMNSLKSEDTAVYYCAKDASEDAGRLYWTDYWGQGTQVTVSS
Turning to B12, in assay [1], the “ELISA A405” value was over 1.5.

B13: NbRBD_B4 (VHH)
VHH: QVQLVESGGGLVQPGGSLRLSCAASGFTFSSYWMYWVRQAPGKGLEWVSVINTGGDTTYYADSVKGRFTISRDNDENTLSLQMNSLKPEDTALYYCARTGVVRGPGDLDAWGQGTQVTVSS
Turning to B13, the “ELISA A405” value in assay [1] is over 1.5.

B14: NbRBD_F9 (VHH)
VHH: QVQLVESGGGLVQPGGSLRVSCAASGFTFSSYFMSWVRQAPGKQRELVATIGDRGNTNYADSVKGRFTISRDNAKNTVYLQMNSLKPEDTAVYYCYSRNRILQHYWGQGTQVTVSS
On to B14, for which the “ELISA A405” value in assay [1] is over 1.5.

B15: NbRBD_C7 (VHH)
VHH: QVQLVESGGGLVQPGGSLRLSCAASGFTFSSYDMSWVRQAPGKGLEWVSGISGSDSTTVYSDSVKDRFTISRDNAKNTLYLQMNKLKPEDTALYYCARPLGQYTSWGQGTQVTVSS
In the case of B15, the “ELISA A405” value in assay [1] was over 1.5.
